# Molecular target: anaphase-promoting complex/cyclosome (APC/C) complex (human (endogenous in HeLa)) (UniProt P30260)
# Test: co-IP
# Chain of UniProt P30260 (P30260 whole entry, looked up, one chain of several): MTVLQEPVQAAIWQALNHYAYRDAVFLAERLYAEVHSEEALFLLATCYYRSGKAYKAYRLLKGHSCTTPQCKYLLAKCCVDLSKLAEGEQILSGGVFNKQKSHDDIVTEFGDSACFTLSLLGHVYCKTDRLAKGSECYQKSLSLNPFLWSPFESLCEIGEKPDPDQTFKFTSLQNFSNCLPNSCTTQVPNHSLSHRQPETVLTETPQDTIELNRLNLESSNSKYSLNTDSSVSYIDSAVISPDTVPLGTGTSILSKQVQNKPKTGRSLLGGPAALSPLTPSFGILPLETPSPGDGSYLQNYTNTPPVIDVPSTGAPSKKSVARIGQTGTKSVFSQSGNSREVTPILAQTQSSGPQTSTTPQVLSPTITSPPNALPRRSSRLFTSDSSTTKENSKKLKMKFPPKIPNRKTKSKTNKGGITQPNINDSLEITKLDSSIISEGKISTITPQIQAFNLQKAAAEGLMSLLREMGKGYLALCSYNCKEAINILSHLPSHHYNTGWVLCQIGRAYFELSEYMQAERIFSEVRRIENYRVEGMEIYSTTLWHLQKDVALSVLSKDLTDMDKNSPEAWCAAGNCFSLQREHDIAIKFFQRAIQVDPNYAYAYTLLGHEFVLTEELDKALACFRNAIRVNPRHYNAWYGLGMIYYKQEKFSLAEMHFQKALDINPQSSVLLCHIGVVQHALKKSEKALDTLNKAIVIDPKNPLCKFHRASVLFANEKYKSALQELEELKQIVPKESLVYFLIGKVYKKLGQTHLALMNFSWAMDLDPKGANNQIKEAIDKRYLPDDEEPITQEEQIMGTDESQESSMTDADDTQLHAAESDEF
substance,measurement,value
HA-tagged human Cdh1 S40D (from UniProt Q9UM11 1-496) (natural protein),"amount coprecipitated, percent of that of Cdh1 S40A",20%
same,"amount coprecipitated, percent of that of wild-type Cdh1",30%

# — paper PMC4493999
